Laboratory results published in article PMC7529705.
Where “and” joins values, the source holds several entries; their conditions need not be identical. Identical values can stand only once.

Each substance was assayed against WD-40 repeat-containing protein 5 (WDR5), full-length (human) (UniProt P61964) (assay: ITC).
With “Histone H3 1–7aa H3R2me1 peptide (from UniProt P68431 2-8)” the Kd was 8.1 µM and 9 µM. “Histone H3 1–7aa H3R2me2s peptide (from UniProt P68431 2-8)” was tested, and the Kd was 10.6 µM and 10.2 µM. “Histone H3 1–7aa unmodified peptide (from UniProt P68431 2-8)” was tested, and the Kd was 11 µM and 11.8 µM.
